Target: the molecule itself
Test: SEC; purified recombinant WT, S287A and S287D PKM2 expressed in bacteria; size exclusion chromatography with molecular mass standards

B1: purified recombinant S287A PKM2 expressed in bacteria (enzyme)
chain: not shown
notes: PKM2 S287A, recombinant; construct, tag and limits not described; source: expressed in bacteria, purified recombinant
stoichiometry N: 2

B2: purified recombinant S287D PKM2 expressed in bacteria (enzyme)
chain: not shown
notes: PKM2 S287D (phospho-mimetic), recombinant; construct, tag and limits not described; source: expressed in bacteria, purified recombinant
stoichiometry N: 4
